Assay [1] deals with calmodulin (Homo sapiens) (UniProt P0DP23). The settings on record: cited from earlier work.
For assay [2] the target is unchanged. The note with it: cited from earlier work. This is another data set of the same source.
In assay [3] the target is calmodulin, calcium-bound (Ca2+/CaM) (UniProt P0DP23). The experiment in a line: SEC; Superdex 75 (10/300 GL), 50 mM Tris pH 7.0, 100 mM NaCl, 5 mM CaCl2; samples ~50-150 uM; fractions by SDS-PAGE; calibration with a low molecular weight kit.
For assay [4], the target named is Fas-Pep2 (FasDD residues 251-288). In words: ITC; Ca2+/CaM at 195 uM titrated into Fas-Pep2 at 17 uM, 35°C, 50 mM HEPES pH 7.0, 100 mM NaCl, 5 mM CaCl2; single set of identical sites. (ITC needs no label: the signal is the heat of the interaction.)
The target in assay [5] is Fas-Pep1 (FasDD residues 209-239). The experiment in a line: ITC; Ca2+/CaM at 450 uM titrated into Fas-Pep1 at 25 uM, 25°C, 50 mM HEPES pH 7.0, 100 mM NaCl, 5 mM CaCl2; single set of identical sites.

Here are results for five substances from publication PMC4703387, “Identification of the Calmodulin-Binding Domains of Fas Death Receptor” (PLoS ONE, 2016).

Read-outs that look alike come from different tables or passages of the source.

As usually defined, the Kd is the equilibrium constant for the complex coming apart. Turning to “Fas death domain death domain (from UniProt P25445)”, the Kd in assay [1] was 2000 nM.
For the substance “Fas death domain peptide 214-238 (from UniProt P25445)”, the Kd in assay [2] is 19.5 µM.
For orientation: stoichiometry N means the number of molecules, sites or subunits per partner or assembly. As for “Fas-Pep1 (FasDD residues 209-239) (peptide)”, the stoichiometry N in assay [3] is 1.
Same read-out and setting: then “Fas-Pep2 (FasDD residues 251-288) (peptide)”, with 1.
For the substance “calmodulin, calcium-bound (Ca2+/CaM) (from UniProt P0DP23 1-149) (natural protein)”, in assay [4], the Kd amounted to 1100 nM, the dH was -14.2 kcal/mol and the stoichiometry N came to 0.9. Also, in assay [5], the Kd amounted to 300 nM, the dH turned out to be 2.15 kcal/mol and the stoichiometry N is 0.95.
